What was measured:
[1] = target: the molecule itself; assay: SDS-PAGE and Western, self-association (dimer)
[2] = target: T1, B23 (nucleophosmin) (UniProt P06748 1-294); assay: mobility shift, 4% native PAGE, Western with Ab-B23; not sensitive to RNaseA
T1 construct: Endogenous protein of HeLa cells; also called protein B23; ribosomal chaperone protein B23

[3] = target: the molecule itself; assay: SDS-PAGE and Western, self-association (results not shown)

T1 sequence (P06748 whole entry): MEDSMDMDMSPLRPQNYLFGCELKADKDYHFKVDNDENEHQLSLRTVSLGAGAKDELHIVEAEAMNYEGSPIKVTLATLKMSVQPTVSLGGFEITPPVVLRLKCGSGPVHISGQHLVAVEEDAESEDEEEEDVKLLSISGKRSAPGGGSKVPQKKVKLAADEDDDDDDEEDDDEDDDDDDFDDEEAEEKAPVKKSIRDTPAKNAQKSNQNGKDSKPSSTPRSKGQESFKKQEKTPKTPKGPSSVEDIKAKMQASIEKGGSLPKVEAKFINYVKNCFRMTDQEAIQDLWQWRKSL

B1: recombinant Mengo 2A protein (other)
chain: SPNPLDVSKTYPTLHILLQFNHRGLEARIFRHGQLWAETHAEVVLRSKTKQISFLSNGSYPSMDATTPLNPWKSTYQAVLRAEPHRVTMDVYHKRIRPFRLPLVQKEWRTCEENVFGLYHVFETHYAGYFSDLLIHDVETNPG
notes: domain: 2A; also called r2A; recombinant 2A
B1: binds [1]; binds [2].

B2: recombinant Mengo 2B protein (other)
chain: PFTFKPRQRPVFQTQGAAVSSMAQTLLPNDLASKAMGSAFTALLDANEDAQKAMKIIKTLSSLSDAWENVKGTLNNPEFWKQLLSRCVQLIAGMTIAVMHPDPLTLLCLGVLTAAEITSQTSLCEEIAAKFKTIFTTPPPRFPVISLFQQQ
notes: domain: 2B; also called recombinant 2B protein
B2: binds [3].
